{"source": "paper PMC6746316", "target": "Xenopus tropicalis ALDH16B1 (Xenopus tropicalis)", "experiment": "SEC"}
{"substance": "Xenopus tropicalis ALDH16B1 (enzyme)", "values": [{"measurement": "stoichiometry N", "value": 2}]}
